Data reported in US20020098541A1 (published 2002).

Columns and labels:
Test in all cases: co-immunoprecipitation from co-transfected 293 cell lysates: anti-FLAG IP, anti-HA immunoblot
FLAG tagged TRAF 2 = biological target: T1, FLAG tagged TRAF 2 (UniProt Q12933 1-501, limits assumed)
T1 sequence (looked up): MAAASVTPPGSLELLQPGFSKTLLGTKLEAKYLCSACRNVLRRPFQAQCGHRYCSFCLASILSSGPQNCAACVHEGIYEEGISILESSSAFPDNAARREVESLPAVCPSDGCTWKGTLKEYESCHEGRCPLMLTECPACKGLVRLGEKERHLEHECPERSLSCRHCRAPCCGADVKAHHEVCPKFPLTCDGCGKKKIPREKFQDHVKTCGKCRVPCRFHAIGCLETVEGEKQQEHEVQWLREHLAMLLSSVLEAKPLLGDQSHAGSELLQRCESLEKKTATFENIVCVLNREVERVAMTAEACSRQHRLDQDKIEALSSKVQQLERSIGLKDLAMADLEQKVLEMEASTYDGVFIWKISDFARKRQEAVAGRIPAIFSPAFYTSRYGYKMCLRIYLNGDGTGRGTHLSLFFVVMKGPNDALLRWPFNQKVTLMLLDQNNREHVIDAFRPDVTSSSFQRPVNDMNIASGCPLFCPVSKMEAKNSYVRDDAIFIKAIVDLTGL
Method: (§1) For TRAF binding assays, 5×10⁵ 293 cells were transfected with 10 μg of HA tagged TR12 and 10 μg of FLAG tagged TRAF 1, 2, 3, 5, or 6 by the calcium phosphate method and cells were harvested 48 hours post transfection in lysis buffer (with 1% NP-40). Whole cell lysates were immunoprecipated with anti-FLAG M2 beads (Sigma, MO), washed 5× with lysis buffer (without BSA), boiled 5 minutes, separated by 10% SDS PAGE, transferred to nitrocellulose, probed with anti-HA HRP (Roche), and developed with ECL (Amersham).
(§2) Since NF-κB activation by TNFR superfamily members is mediated primarily by the TRAF family of signaling molecules, the ability of TR12 to bind any of the TRAF molecules was studied. 293 cells were co-transfected with a FLAG tagged TRAF expression plasmid and a hemagglutinin tagged TR12 expression plasmid.

FLAG tagged TRAF 3 = biological target: T2, FLAG tagged TRAF 3 (UniProt Q13114 1-568, limits assumed)
T2 sequence (looked up): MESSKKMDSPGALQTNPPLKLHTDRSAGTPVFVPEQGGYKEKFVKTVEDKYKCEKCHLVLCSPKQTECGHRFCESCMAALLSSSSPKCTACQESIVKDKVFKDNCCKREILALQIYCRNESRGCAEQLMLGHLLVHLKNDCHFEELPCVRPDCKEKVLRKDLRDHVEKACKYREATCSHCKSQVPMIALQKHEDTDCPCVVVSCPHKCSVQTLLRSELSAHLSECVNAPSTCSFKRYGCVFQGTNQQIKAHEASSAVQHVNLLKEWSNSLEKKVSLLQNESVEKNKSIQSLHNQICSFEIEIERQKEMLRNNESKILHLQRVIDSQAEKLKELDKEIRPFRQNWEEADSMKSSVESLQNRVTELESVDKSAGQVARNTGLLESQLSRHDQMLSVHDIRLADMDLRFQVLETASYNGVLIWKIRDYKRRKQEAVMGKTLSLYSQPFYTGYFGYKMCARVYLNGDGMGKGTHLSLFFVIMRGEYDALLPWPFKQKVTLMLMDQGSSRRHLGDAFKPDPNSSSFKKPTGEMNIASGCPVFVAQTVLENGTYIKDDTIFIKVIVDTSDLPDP
Method: as §1, §2

FLAG tagged TRAF 5 = FLAG tagged TRAF 5 (UniProt O00463 1-557, limits assumed)
FLAG tagged TRAF 5, sequence (O00463 whole entry): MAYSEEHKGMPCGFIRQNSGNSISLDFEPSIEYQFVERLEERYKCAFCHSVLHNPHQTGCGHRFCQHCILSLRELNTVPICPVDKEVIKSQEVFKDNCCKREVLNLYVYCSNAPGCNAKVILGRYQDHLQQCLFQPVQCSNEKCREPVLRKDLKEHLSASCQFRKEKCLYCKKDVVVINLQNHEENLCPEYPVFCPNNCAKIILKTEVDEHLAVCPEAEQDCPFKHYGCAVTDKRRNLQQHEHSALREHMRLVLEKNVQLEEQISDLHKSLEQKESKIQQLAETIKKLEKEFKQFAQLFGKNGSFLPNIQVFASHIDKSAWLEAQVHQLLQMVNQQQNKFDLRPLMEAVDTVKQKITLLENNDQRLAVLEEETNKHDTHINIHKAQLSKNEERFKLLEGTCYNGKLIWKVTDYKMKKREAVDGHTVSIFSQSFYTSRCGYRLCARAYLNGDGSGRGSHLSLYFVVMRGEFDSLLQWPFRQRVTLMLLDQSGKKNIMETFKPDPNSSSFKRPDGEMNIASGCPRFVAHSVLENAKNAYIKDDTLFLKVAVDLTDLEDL
Method: as §1, §2

FLAG tagged TRAF 6 = biological target: T3, FLAG tagged TRAF 6 (UniProt Q9Y4K3 1-522, limits assumed)
T3 sequence (looked up): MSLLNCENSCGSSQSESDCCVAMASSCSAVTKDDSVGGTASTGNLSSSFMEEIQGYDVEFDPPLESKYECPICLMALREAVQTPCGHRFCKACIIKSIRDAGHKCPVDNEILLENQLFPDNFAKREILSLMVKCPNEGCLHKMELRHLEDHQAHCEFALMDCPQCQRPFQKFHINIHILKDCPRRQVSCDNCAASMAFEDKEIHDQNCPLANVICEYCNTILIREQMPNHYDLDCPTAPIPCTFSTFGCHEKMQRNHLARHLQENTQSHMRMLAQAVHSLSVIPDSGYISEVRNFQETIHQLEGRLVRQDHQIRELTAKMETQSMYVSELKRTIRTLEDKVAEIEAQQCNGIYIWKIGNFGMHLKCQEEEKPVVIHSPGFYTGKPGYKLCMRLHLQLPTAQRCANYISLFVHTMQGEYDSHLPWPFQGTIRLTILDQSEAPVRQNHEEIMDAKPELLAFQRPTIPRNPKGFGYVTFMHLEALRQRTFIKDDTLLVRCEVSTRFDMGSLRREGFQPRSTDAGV
Method: as §1, §2

Measured: binding result

B1: HA tagged TR12 (TNFR Related Gene 12) (receptor)
chain: STTLWQCPPGEEPDLDPGQGTLCRPCPPGTFSAAWGSSPCQPHARCSLWRRLEAQVGMATRDTLCGDCWPGWFGPWGVPRVPCQPCSWAPLGTHGCDEWGRRARRGVEVAAGASSGGETRQPGNGTRAGGPEETAAQYAVIAIVPVFCLMGLLGILVCNLLKRKGYHCTAHKEVGPGPGGGGSGINPAYRTEDANEDTIGVLVRLITEKKENAAALEELLKEYHSKQLVQTSHRPVSKLPPAPPNVPHICPHRHHLHTVQGLASLSGPCCSRCSQKKWPEVLLSPEAVAATTPVPSLLPNPTRVPKAGAKAGRQGEITILSVGRFRVARIPEQRTSSMVSEVKTITEAGPSWGDLPDSPQPGLPPEQQALLGSGGSRTKWLKPPAENKAEENRYVVRLSESNLVI
notes: Expressed from a plasmid in transfected 293 cells and tested in whole cell lysate; It includes the predicted leader (about residues 1-25), which may be cleaved in cells; also called hemagglutinin tagged TR12; not shown: HA (hemagglutinin) tag
no binding: all assays above
